From PMC6391409, “A role for Vibrio vulnificus PecS during hypoxia” (Scientific Reports, 2019)
Where two headings read alike, the source gives them in different places.

Assays:
PecS (VvPecS) [1] = target: T1, PecS (VvPecS) (Vibrio vulnificus, UniProt A0A3Q0KXQ7); assay: EMSA: attenuation of purified VvPecS binding to pecS-pecM intergenic DNA (IC50 […]); supported by SYPRO Orange thermal shift (Tm […] to […] °C)
T1 construct: gene VV2_0325; His6-tagged VvPecS (BJE04_RS19600; old locus tag VVA0819), dimer

PecS (VvPecS) [2] = target: T1, PecS (VvPecS); assay: as above; remark: listed apart in the source
[3] = test system: VvPecS (PecS) (Vibrio vulnificus YJ016); assay: EMSA; conditions: EMSA: 0.5 M Tris pH 8.0, 100 mM NaCl, 6% glycerol, 25 uM EDTA, 0.12% Brij-58, 50 ug BSA, 25 C, 20 min; footprint: 20 mM Tris pH 8.0, 50 mM NaCl, 5 mM MgCl2 …
[4] = test system: VvPecS (PecS) (Vibrio vulnificus YJ016); assay: EMSA; conditions: EMSA: 0.5 M Tris pH 8.0, 100 mM NaCl, 6% glycerol, 25 uM EDTA, 0.12% Brij-58, 50 ug BSA, 25 C, 20 min; footprint: 20 mM Tris pH 8.0, 50 mM NaCl, 5 mM MgCl2 …; remark: listed apart in the source

T1 sequence (A0A3Q0KXQ7 entry or part of it): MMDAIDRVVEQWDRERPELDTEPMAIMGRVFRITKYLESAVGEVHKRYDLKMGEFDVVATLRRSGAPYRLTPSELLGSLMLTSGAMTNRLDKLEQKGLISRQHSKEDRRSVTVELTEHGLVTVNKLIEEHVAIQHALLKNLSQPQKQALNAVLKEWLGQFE

Q: How did the Ki (PecS (VvPecS) [1]) turn out when `O=c1[nH]c(=O)c2[nH]c(=O)[nH]c2[nH]1` [urate] was run?
A: 226 ± 29 µM

Q: For `O=c1[nH]c(=O)c2[nH]cnc2[nH]1` [xanthine], which Ki (PecS (VvPecS) [2]) is on record?
A: 60 ± 5 µM

Q: Which Kd [3] does the source give for iNR (nsrR-nod intergenic DNA) here?
A: 0.218 µM

Q: What does the source list for iSM (pecS-pecM intergenic DNA)?
A: IC50 [3]: 366 µM; Kd [3]: 0.0003 µM; IC50 [4]: 1500 µM
